Source: the supplement of paper PMC9233669
This sample holds only a part of the variants without activity.

Assays:
[1] = tested on: biotinyl-Phe-oxazolone; assay: self-aminoacylation, catalytic enhancement (BFO) (fold over background); higher = more active; k-Seq, kA / k0A0; sequences stand for … in GGGAAUGGAUCCACAUCUACGAAUUC…UUCACUGCAGACUUGACGAAGCUG
How it was run: (§1)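 Working in 50 μL HEPES/NaCl/KCl/MgCl2/CaCl2 buffer with 5% acetonitrile at pH 6.9–7.0, mutagenized RNA pools (0.43 μM; 21-nt variable region) were reacted with 2–1250 μM of each biotinyl-aminoacyl-oxazolone for 90 minutes at room temperature. Streptavidin capture followed, with quantification by triplicate qPCR and Illumina sequencing. Catalytic enhancement is reported as median kA over the uncatalyzed rate, the low-activity peak of a bimodal Gaussian fit to the data.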

[2] = tested on: biotinyl-Leu-oxazolone; assay: self-aminoacylation, catalytic enhancement (BLO) (fold over background); higher = more active; k-Seq, kA / k0A0; sequences stand for … in GGGAAUGGAUCCACAUCUACGAAUUC…UUCACUGCAGACUUGACGAAGCUG
How it was run: as §1

[3] = tested on: biotinyl-Trp-oxazolone; assay: self-aminoacylation, catalytic enhancement (BWO) (fold over background); higher = more active; k-Seq, kA / k0A0; sequences stand for … in GGGAAUGGAUCCACAUCUACGAAUUC…UUCACUGCAGACUUGACGAAGCUG
How it was run: as §1

[4] = tested on: biotinyl-Val-oxazolone; assay: self-aminoacylation, catalytic enhancement (BVO) (fold over background); higher = more active; k-Seq, kA / k0A0; sequences stand for … in GGGAAUGGAUCCACAUCUACGAAUUC…UUCACUGCAGACUUGACGAAGCUG
How it was run: as §1

[5] = tested on: biotinyl-Ile-oxazolone; assay: self-aminoacylation, catalytic enhancement (BIO) (fold over background); higher = more active; k-Seq, kA / k0A0; sequences stand for … in GGGAAUGGAUCCACAUCUACGAAUUC…UUCACUGCAGACUUGACGAAGCUG
How it was run: as §1

[6] = tested on: biotinyl-Met-oxazolone; assay: self-aminoacylation, catalytic enhancement (BMO) (fold over background); higher = more active; k-Seq, kA / k0A0; sequences stand for … in GGGAAUGGAUCCACAUCUACGAAUUC…UUCACUGCAGACUUGACGAAGCUG
How it was run: as §1

Row | Sequence | self-aminoacylation [1] | self-aminoacylation [2] | self-aminoacylation [3] | self-aminoacylation [4] | self-aminoacylation [5] | self-aminoacylation [6]
1 | CCACACUUCAGGCCAUCGGUC [Fam1B.1 aminoacylation ribozyme variant] | 7.44 | 1.77 | 1.69 | 2.49 | 2.37 | 1.94
2 | CCACACUUCAUGCAAUCGGUC [Fam1B.1 aminoacylation ribozyme variant] | 0.866 | 0.693 | 0.689 | 0.9 | 0.819 | 0.687
3 | CCACACUUCAUGCAAUCUGUC [Fam1B.1 aminoacylation ribozyme variant] | 0.605 | 0.35 | 0.277 | 0.479 | 0.454 | 0.391
4 | CCACACUUCAUGCAAUUGGUC [Fam1B.1 aminoacylation ribozyme variant] | 0.619 | 0.627 | 0.43 | 0.791 | 0.658 | 0.764
5 | CCACACUUCAUGCCAUCGGUC [Fam1B.1 aminoacylation ribozyme variant] | 0.488 | 0.921 | 1.59 | 1.1 | 0.957 | 0.691
6 | CCACACUUCAUGCUAUCGGUC [Fam1B.1 aminoacylation ribozyme variant] | 0.838 | 0.69 | 0.714 | 0.931 | 0.834 | 0.626
7 | CCACACUUCCACCAAUCGGUC [Fam1B.1 aminoacylation ribozyme variant] | 0.478 | 0.643 | 0.847 | 0.962 | 0.908 | 0.51
8 | CCACACUUCCAGCAUUCGGUC [Fam1B.1 aminoacylation ribozyme variant] | 1.12 | 2.42 | 2.58 | 2.81 | 2.48 | 2.05
9 | CCACACUUCCAGCGAUCGGUC [Fam1B.1 aminoacylation ribozyme variant] | 1.52 | 1.51 | 1.46 | 1.97 | 1.78 | 1.68
10 | CCACACUUCGAACAAUCGGUC [Fam1B.1 aminoacylation ribozyme variant] | 1.11 | 0.862 | 0.84 | 0.957 | 0.833 | 0.98
11 | CCACACUUCGAGAAAUCGGUC [Fam1B.1 aminoacylation ribozyme variant] | 0.511 | 1.12 | 0.812 | 0.976 | 0.951 | 1.18
12 | CCACACUUCGAGCAAUCGCUC [Fam1B.1 aminoacylation ribozyme variant] | 5.11 | 1.71 | 2.71 | 2.62 | 1.98 | 2.13
13 | CCACACUUCGAGCAAUCGUUC [Fam1B.1 aminoacylation ribozyme variant] | 0.683 | 0.493 | 0.469 | 0.569 | 0.516 | 0.412
14 | CCACACUUCUAGCAAUCGCUC [Fam1B.1 aminoacylation ribozyme variant] | 1.02 | 0.829 | 0.453 | 1.04 | 1.11 | 0.72
15 | CCACACUUCUAGCAAUCGUUC [Fam1B.1 aminoacylation ribozyme variant] | 1.04 | 0.558 | 0.481 | 1.01 | 0.767 | 0.511
16 | CCACACUUCUCGCAAUCGGUC [Fam1B.1 aminoacylation ribozyme variant] | 0.867 | 1.04 | 0.888 | 1.09 | 1.06 | 0.889
17 | CCACACUUGAAGCAAUCGCUC [Fam1B.1 aminoacylation ribozyme variant] | 0.891 | 1.52 | 1.31 | 1.59 | 1.36 | 1.3
18 | CCACACUUGAAGCAAUCGGAC [Fam1B.1 aminoacylation ribozyme variant] | 0.658 | 0.869 | 0.769 | 1.18 | 0.951 | 0.961
19 | CCACACUUGAAGCAAUCGGUG [Fam1B.1 aminoacylation ribozyme variant] | 19.1 | 4.29 | 3.48 | 2.39 | 2.21 | 3.04
20 | CCACACUUGAAGCAAUCGGUU [Fam1B.1 aminoacylation ribozyme variant] | 0.703 | 1.14 | 2.47 | 1.45 | 1.18 | 1.32
21 | CCACACUUGAAGCAAUGGGUC [Fam1B.1 aminoacylation ribozyme variant] | 1.26 | 0.739 | 0.833 | 0.811 | 0.99 | 0.696
22 | CCACACUUGCAGCAAUCGGUC [Fam1B.1 aminoacylation ribozyme variant] | 1.07 | 1.33 | 1.23 | 1.64 | 1.63 | 1.2
23 | CCACACUUUAAGCAAUCGGUG [Fam1B.1 aminoacylation ribozyme variant] | 22.9 | 5.4 | 3.9 | 2.38 | 2.93 | 3.89
24 | CCACACUUUAAGCAGUCGGUC [Fam1B.1 aminoacylation ribozyme variant] | 1.16 | 0.926 | 0.623 | 0.946 | 0.858 | 0.755
25 | CCACACUUUAAGCCAUCGGUC [Fam1B.1 aminoacylation ribozyme variant] | 0.541 | 0.755 | 0.783 | 0.879 | 0.964 | 0.743
26 | CCACACUUUAGGCAAUCGGUC [Fam1B.1 aminoacylation ribozyme variant] | 0.648 | 0.831 | 0.713 | 1.01 | 1.12 | 0.96

Row | Sequence | self-aminoacylation [1] | self-aminoacylation [2] | self-aminoacylation [3] | self-aminoacylation [4] | self-aminoacylation [5] | self-aminoacylation [6]
27 | CCACACUUUUAGCAAUCGGUC [Fam1B.1 aminoacylation ribozyme variant] | 0.974 | 0.845 | 0.678 | 0.942 | 0.874 | 0.767
28 | CCACAGCUCAAGCAAUCGGUC [Fam1B.1 aminoacylation ribozyme variant] | 3.21 | 1.16 | 2.35 | 1.29 | 1.18 | 1.05
29 | CCACAGUUAAAGCAAUCGGUC [Fam1B.1 aminoacylation ribozyme variant] | 0.915 | 0.963 | 0.869 | 0.98 | 0.832 | 0.836
30 | CCACAGUUCAAGCAAUCGGCC [Fam1B.1 aminoacylation ribozyme variant] | 0.924 | 2.6 | 3.18 | 3.95 | 2.11 | 2.66
31 | CCACAGUUCAAGCAUUCGGUC [Fam1B.1 aminoacylation ribozyme variant] | 1.61 | 2.04 | 1.86 | 2.33 | 1.88 | 1.84
32 | CCACAGUUUAAGCAAUCGGUC [Fam1B.1 aminoacylation ribozyme variant] | 0.825 | 0.786 | 0.708 | 0.758 | 0.82 | 0.857
33 | CCACAUGUCAAGCAAUCGGUC [Fam1B.1 aminoacylation ribozyme variant] | 1.08 | 1.27 | 0.915 | 1.33 | 1.22 | 1.13
34 | CCACAUUUCAAGCAGUCGGUC [Fam1B.1 aminoacylation ribozyme variant] | 0.868 | 0.899 | 0.803 | 1.15 | 1.15 | 0.9
35 | CCACAUUUCAAUCAAUCGGUC [Fam1B.1 aminoacylation ribozyme variant] | 12.7 | 1.07 | 6.51 | 1.14 | 1.14 | 1.09
36 | CCACCAUUCAAGCAAUCGGUC [Fam1B.1 aminoacylation ribozyme variant] | 1.89 | 0.958 | 1.4 | 1.3 | 1.16 | 0.934
37 | CCACCCAUCAAGCAAUCGGUC [Fam1B.1 aminoacylation ribozyme variant] | 0.916 | 0.876 | 0.951 | 1.07 | 1.06 | 0.85
38 | CCACCCUUCAAGCAAUCGGUG [Fam1B.1 aminoacylation ribozyme variant] | 63.7 | 10.2 | 6.85 | 4.61 | 4.86 | 7.37
39 | CCACCCUUCAAGCAAUCGGUU [Fam1B.1 aminoacylation ribozyme variant] | 2.79 | 1.91 | 4.11 | 1.67 | 1.47 | 1.42
40 | CCACCCUUCAAGCAAUUGGUC [Fam1B.1 aminoacylation ribozyme variant] | 1.33 | 0.814 | 1.04 | 0.984 | 0.814 | 0.907
41 | CCACCCUUCCAGCAAUCGGUC [Fam1B.1 aminoacylation ribozyme variant] | 1.15 | 1.04 | 1.51 | 1.94 | 1.41 | 1.02
42 | CCACGCUUCAAGCAAUCGCUC [Fam1B.1 aminoacylation ribozyme variant] | 0.605 | 0.929 | 1.13 | 1.42 | 0.955 | 0.927
43 | CCACGCUUCAAGCAAUCGGGC [Fam1B.1 aminoacylation ribozyme variant] | 1.35 | 0.924 | 1.41 | 2.04 | 1.08 | 1.25
44 | CCACGCUUCAAGCAAUCGGUA [Fam1B.1 aminoacylation ribozyme variant] | 1.37 | 0.943 | 1.13 | 1.14 | 0.724 | 0.873
45 | CCACGCUUCAAGCAUUCGGUC [Fam1B.1 aminoacylation ribozyme variant] | 0.774 | 1.11 | 1.31 | 1.93 | 1.24 | 1.06
46 | CCACGCUUCAAGGAAUCGGUC [Fam1B.1 aminoacylation ribozyme variant] | 11.6 | 1.19 | 11 | 1.1 | 1.11 | 1.22
47 | CCACGCUUCAAUCAAUCGGUC [Fam1B.1 aminoacylation ribozyme variant] | 30.8 | 1.34 | 20 | 1.18 | 1.01 | 0.865
48 | CCACGCUUCACGCAAUCGGUC [Fam1B.1 aminoacylation ribozyme variant] | 0.964 | 1.09 | 1.95 | 1.82 | 1.15 | 1.4
49 | CCACGCUUCCAGCAAUCGGUC [Fam1B.1 aminoacylation ribozyme variant] | 0.836 | 1.05 | 1.12 | 1.11 | 1.11 | 0.936
50 | CCACGCUUGAAGCAAUCGGUC [Fam1B.1 aminoacylation ribozyme variant] | 0.547 | 0.714 | 1.01 | 1.28 | 0.895 | 0.861
51 | CCACUCAUCAAGCAAUCGGUC [Fam1B.1 aminoacylation ribozyme variant] | 0.817 | 0.997 | 0.731 | 0.971 | 0.977 | 0.73
